For assay [1], the target named is T1, human CD22-beta-ECD-His tagged soluble antigen (human, UniProt P20273 22-681).
T1 construct: also called soluble CD22 extracellular domain (ECD); Soluble Human CD22
T1 sequence: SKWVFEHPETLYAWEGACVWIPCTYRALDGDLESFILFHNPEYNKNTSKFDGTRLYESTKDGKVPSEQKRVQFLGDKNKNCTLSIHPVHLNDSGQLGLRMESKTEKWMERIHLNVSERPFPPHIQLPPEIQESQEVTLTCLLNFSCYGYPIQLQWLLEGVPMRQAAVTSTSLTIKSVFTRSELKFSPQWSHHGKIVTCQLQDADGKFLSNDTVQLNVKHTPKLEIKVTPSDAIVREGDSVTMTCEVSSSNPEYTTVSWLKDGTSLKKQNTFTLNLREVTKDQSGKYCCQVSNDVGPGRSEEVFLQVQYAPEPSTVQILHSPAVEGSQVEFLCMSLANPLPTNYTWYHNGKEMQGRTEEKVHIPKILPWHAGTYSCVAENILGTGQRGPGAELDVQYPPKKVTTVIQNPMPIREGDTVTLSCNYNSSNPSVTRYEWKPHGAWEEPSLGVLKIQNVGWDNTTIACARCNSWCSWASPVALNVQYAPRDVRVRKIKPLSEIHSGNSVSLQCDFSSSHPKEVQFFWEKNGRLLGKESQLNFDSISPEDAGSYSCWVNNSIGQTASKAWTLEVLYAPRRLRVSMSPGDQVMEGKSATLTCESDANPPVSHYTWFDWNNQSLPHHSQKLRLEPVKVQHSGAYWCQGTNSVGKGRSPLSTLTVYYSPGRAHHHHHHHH
The experiment in a line: SPR (BIACORE 3000), antibody coupled to the chip, soluble CD22-beta-ECD-His injected, 25 C. As to the method:
The binding affinity of murine and humanized 10F4 antibody for soluble CD22 extracellular domain (ECD) was determined by surface plasmon resonance measurement using a BIACORE® 3000 system (Biacore, Inc., Piscataway, N.J.). Briefly, carboxymethylated dextran biosensor chips (CMS, Biacore Inc.) were activated with N-ethyl-N′-(3-dimethylaminopropyl)-carbodiimide hydrochloride (EDC) and N-hydroxysuccinimide (NHS) according to the supplier's instructions. These activated chips were coated with anti-CD22 IgG1 antibody 10F4 (murine or humanized) by dilution to 5 μg/ml with 10 mM sodium acetate, pH 4.8, before injection at a flow rate of […] to achieve approximately 500 response units (RU) of coupled antibody. Next, 1M ethanolamine was injected to block unreacted groups. […] Association rates (kₒₙ) and dissociation rates (koff) were calculated using a simple one-to-one Langmuir binding model (BIAevaluation Software version 3.2). The equilibrium dissociation constant (Kd) was calculated as the ratio koff/kₒₙ. Anti-CD22 antibody, RFB4, was used as a control (Chemicon International, Inc., Temecula, Calif., catalog no. CBL147).
For orientation: SPR reads the build-up and loss of mass on a sensor chip optically.

Assay [2] concerns the target T2, CD22 variant lacking domain 2 (Δ2), expressed on CHO cells (human, UniProt P20273 22-847).
T2 construct: Membrane protein on stably transformed CHO cells; Numbering of full length precursor CD22beta (Wilson et al. 1991); also called CD22 lacking domain 2
T2 chain: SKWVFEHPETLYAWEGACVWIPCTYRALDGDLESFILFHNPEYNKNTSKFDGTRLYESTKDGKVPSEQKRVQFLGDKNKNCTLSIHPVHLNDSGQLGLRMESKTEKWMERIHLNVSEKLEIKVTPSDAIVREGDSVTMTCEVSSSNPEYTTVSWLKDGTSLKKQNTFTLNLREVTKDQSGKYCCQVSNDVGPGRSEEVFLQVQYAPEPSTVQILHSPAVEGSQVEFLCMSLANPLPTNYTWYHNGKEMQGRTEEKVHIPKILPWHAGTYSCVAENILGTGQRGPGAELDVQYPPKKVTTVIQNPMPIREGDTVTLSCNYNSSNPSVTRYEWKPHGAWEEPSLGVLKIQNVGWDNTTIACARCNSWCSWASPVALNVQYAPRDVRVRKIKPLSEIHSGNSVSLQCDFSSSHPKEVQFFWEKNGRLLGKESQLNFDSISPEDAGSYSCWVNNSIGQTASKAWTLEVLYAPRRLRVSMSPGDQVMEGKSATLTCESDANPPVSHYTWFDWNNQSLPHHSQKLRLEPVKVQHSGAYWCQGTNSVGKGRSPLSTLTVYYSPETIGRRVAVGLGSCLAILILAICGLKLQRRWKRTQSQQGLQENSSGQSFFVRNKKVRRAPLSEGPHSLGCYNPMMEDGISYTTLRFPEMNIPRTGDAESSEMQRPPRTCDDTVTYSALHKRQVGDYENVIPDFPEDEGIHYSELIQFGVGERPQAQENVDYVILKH
The experiment in a line: flow cytometry on CHO cells expressing the CD22 deletion variant; goat anti-mouse IgG Alexa 488. The procedure: CD22 sequences lacking various of the seven immunoglobulin-like domains of the major CD22 isoform (CD22beta) were cloned and transformed into cells for stable expression. For example, CD22 variants lacking domain 1 (Δ1), domain 2 (Δ2), or domains 3 and 4 (Δ3,4) were cloned, transformed into CHO cells, and expressed on the cells. Control cells expressed CD22beta. Deletions were performed using Stratagene QuikChange XL™ reagent kit. Deletion of domain 1 was performed by deletion of amino acids 22-138; deletion of domain 2 was performed by deletion of amino acids 139-242; and deleted domains 3 and 4 were available as the minor isoform CD22alpha (deletion of amino acids 241-417). All amino acid numbers refer to the numbering of full length precursor CD22beta by Wilson, G. L. et al. (see FIG. 1 in Wilson, G. L. et al., J. Exp. Med. 173:137-146 (1991)). FIG. 14 is a diagram of the deleted domains. Binding was determined by flow cytometry using an isotype control. […] Binding of 5E8.1.8 was detected using biotinylated goat anti-mouse IgG plus streptavidin PE.
Background: Flow cytometry measures light scatter and fluorescence of single cells or particles in a stream.

B1: murine anti-human CD22 10F4.4.1 monoclonal antibody (antibody, V domains shown)
VH: QVQLQQSGPELVKPGASVKISCKASGYEFSRSWMNWVKQRPGQGREWIGRIYPGDGDTNYSGKFKGKATLTADKSSSTAYMQLSSLTSVDSAVYFCARDGSSWDWYFDVWGAGTTVTVSS
VL: DILMTQTPLSLPVSLGDQASISCRSSQSIVHSNGNTFLEWYLQKPGQSPKLLIYKVSNRFSGVPDRFSGSGSGTDFTLKISRVEAEDLGVYYCFQGSQFPYTFGGGTKVEIK
notes: Murine hybridoma antibody (ATCC PTA-7621); also called mu 10F4; Mu 10F4.4.1
On to B1, for which, in assay [1], the Kd was found to be 15 nM, the off-rate constant (koff) came to 0.00028 s⁻¹ and the on-rate constant (kon) turned out to be 19000 M⁻¹ s⁻¹. In addition, in assay [2], the binding result was “no binding”.

For orientation: Kd means the free concentration of one partner at which half of the binding sites on the other are occupied at equilibrium, for simple one-to-one binding. A high value points to a looser complex. The term koff denotes a measure of how fast the partners let go of each other. Lower therefore signals slow dissociation. In general, kon refers to the rate constant with which the complex forms. Low values mean slower complex formation, high ones faster complex formation.

Values taken from patent US20130171170A1 (published 2013).
